In the data set the target is FvWRKY50-His (Fragaria vesca? (diploid strawberry; …, UniProt A0A2H4G369 6-213). Put plainly: EMSA; 200-fold unlabeled probe used as competitor; EMSA buffer, salt, pH and temperature not given in the material. The following applies: protein: recombinant, tags: His (pET30a; also written His-FvWRKY50), blunt. Background: A gel shift assay detects complexes by their altered migration in electrophoresis.
Chain of FvWRKY50-His (Fragaria vesca? (A0A2H4G369 entry or part of it): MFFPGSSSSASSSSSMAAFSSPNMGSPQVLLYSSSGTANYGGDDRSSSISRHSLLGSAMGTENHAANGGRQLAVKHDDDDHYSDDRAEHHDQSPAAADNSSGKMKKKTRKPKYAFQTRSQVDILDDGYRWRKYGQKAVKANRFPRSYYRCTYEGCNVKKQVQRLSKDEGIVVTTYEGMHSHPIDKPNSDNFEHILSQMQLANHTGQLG

B1: proCHI probe W1610 (dsDNA)
DNA 1: CTCATTTTACCAAGTTGACCCCTTCATTTG
DNA 2: CAAATGAAGGGGTCAACTTGGTAAAATGAG
For the molecule B1, the binding result is reported as “binds”.

B2: proFT3 probe W982 (dsDNA)
DNA 1: GATCCATTTCCATTGACCAGACTCACCTCAC
DNA 2: GTGAGGTGAGTCTGGTCAATGGAAATGGATC
In the case of B2, the binding result (label: biotin) is reported as “binds”.

B3: proDFR probe W290 (dsDNA)
DNA 1: CTTATATCCACATCTTGACCGTTCAGTTTATAG
DNA 2: CTATAAACTGAACGGTCAAGATGTGGATATAAG
As to B3, the binding result was “binds”.

The values are drawn from article PMC10419500, “FvWRKY50 is an important gene that regulates both vegetative growth and reproductive growth in strawberry”.
